{
  "source": "the DeepSol protein solubility set",
  "data": [
    {"assay": "soluble on expression in E. coli; label from the status in PepcDB or PDB records", "values": [
      {"sequence": "MGSDKIHHHHHHMYKINIIRSDSVYKNILKAPINDRDSIFTKEILVPFKKKFEVQHMPIYNDDKQTMSAIQFLDAFQISPKDLRMSDQMSIQYLNNDFWSNCEKYLKVAIDQFSNYSISSQVSNYHFTVLLGDSQKPLMYLNKNRGGDGGIPGYIMIYLVPSTSTINSMKSLIAHEVNHNMRYQYIDWDGGSLIELIIAEGLAENYVESLYGKAHIGPWVTNTNWSRDNVKIKNTIYNHLHLKHIFESMPYLYGDDINKLQGRPIVGLSHAAGYACGYHLVKYFLQKTNIPIEVATTLPAQKIINEVTEFWHTHTL", "soluble on expression in E. coli": "not soluble"},
      {"sequence": "MCIGVPGQIRAIDGNQAKVDVCGIQRDVDLTLVGSCDENGQPRLGQWVLVHVGFAMSVINEAEARDTLDALQNMFDVEPDVGALLYGEER", "soluble on expression in E. coli": "not soluble"},
      {"sequence": "MCDSHQKEEDNANTSERALFFNYHEFSYSFYEDLGSEDAKPTEHDEDHKLCITHFPNVYAARGSAEFQVTRVVRVPRRFDESRSSLETPQFSTQLPGSEPAAIVGDDGTSFVRCGRYDIGDHVFGCSSVSPLSEYLSAAELAEVVHRVNGFLLREEGEVFGWRNLSGLLLDMLTGGLWSWVLGPLLSRPVFQESLALEQYVAQLNSPGGLLHERGVRLVLPRRSGCLSLDFVVPRPK", "soluble on expression in E. coli": "not soluble"},
      {"sequence": "MGSDKIHHHHHHMPLSIITNTFAGNPLDRDSERRGDEAFLAEKLADPESLAVALWNGKPLVEDILGEDGKPTGVQIAYLRADMAQDLAGGSEKLLYMGLWKDIAVFAVDIEGAADPAEGPLQGLGRFEELRGAAASMPPADAGILATAKSMFEWRRRHRWCSACGQKTEVSDGGWKRVCPSCEAEHFPRTDPVAIMLAIHDGKCLLGRQAMWPQGMFSALAGFIEPGETIEEACARELQEEAGLKATAVRYHSSQPWPWPSSLMMGLIAEVDSDEAAPDQTELEEVRWFTREEALQLIRGELDGLFAPPPLAIAHQLIKAWAEEA", "soluble on expression in E. coli": "not soluble"},
      {"sequence": "MSIKFELIDVPIPQGTNVIIGQAHFIKTVEDLYEALVTSVPGVKFGIAFCEASGKRLVRHEANDEELRNLAIDLCKKIAAGHVFVIYIRNAWPINVLNAIKNVPEVVRIFAATANPLKVIVAEVEPERRGVVGVVDGHSPLGVETEKDREERKKFLREVVKYKL", "soluble on expression in E. coli": "soluble"},
      {"sequence": "MGSDKIHHHHHHMLKDLVREKLLTIMNTKAYTQFNPEQLLQLENEMKIYMKSGDSALTEGNYFFLMEMLFYVLVYRNQDVDAQVVYNTLRDRLGENSYKMVIMKATLLQINGNDKGAIEYLENLLNDDLEYETDFVTYVSIAKKLIAIKTTSKNLSQESVLKEVVALTDKFPLDAELWWYASEIYFEMGQFEKACYCLEQVLCITPFNYACFGRLSETLYYEALRSKKQTKTELLEKALKNALRSVELSELYLKGWALVNIISRELGRNKQNDLIKLSASKLKEISAKSNNKDKITAELILNKI", "soluble on expression in E. coli": "not soluble"},
      {"sequence": "LWLASDLHLGPATPATAEAFLGLLQAAADEASALLLPGDIFDAWIGDDVIRAAPPWLAAVLQGIRAAAGRIPVYLGRGNRDFLIGQELADALGAHLLPEPVLLETDYGRILLTHGDEYCTDDSAYQQFRAMVRNPQWQAQFLAMSIPERLAMAEQARGESQAANQAKSMEIMDVNPASVEAALREADVDVLVHGHTHRPARHVL", "soluble on expression in E. coli": "not soluble"},
      {"sequence": "EHEKGQKLIKTMDQEIDEVAKIGKTIKKPKTVLFEVAALPDIYSFGNGTFLNEMIETIGAKNVLANEKGWLPVTEEAAIAAKPEVILTNVNYMKDPAKEILARKNWESVPAVQNKEVFEIDNMSSSLPNNHITKALKQMAKAVYPEEYKDLKDE", "soluble on expression in E. coli": "not soluble"},
      {"sequence": "KLEFREVDKDALVNDEKLLREFFGIYVLAHYRNRPSDLAILLDMPNHLPFIVTVNGKPVCSLHIAVEGNLDDETIEKIKEGYKPKGQIIPDLMLKHYWDFEFPKLVGARVVRIATHPSVMDMGIGSFALAKIVEWAYGRDMDWVGSGFGVSPELLRFWAKNHFTPVHITPQRNE", "soluble on expression in E. coli": "not soluble"},
      {"sequence": "MGNKQTIFTEEQLDNYQDCTFFNKKDILKLHSRFYELAPNLVPMDYRKSPIVHVPMSLIIQMPELRENPFKERIVAAFSEDGEGNLTFNDFVDMFSVLCESAPRELKANYAFKIYDFNTDNFICKEDLELTLARLTKSELDEEEVVLVCDKVIEEADLDGDGKLGFADFEDMIAKAPDFLSTFHIRI", "soluble on expression in E. coli": "not soluble"},
      {"sequence": "MAHHHHHHMYRSSGELRKYAQCVFALYCLDDGLSISRFRLAWYVLWGKWPEESVVQMLFDKKDKSTGGNEDPTGEEGGIVGSGGLAEKDKHHDGGTPLAQSFPFSALRRRINEKEFVRFAVTYHDTMGADAVGFGVTEEDGEYATVDMQSAFSGVVRARHWLQFHALAGSKGYVTLDDLIATEKVDWLYPPMSGGSASGLMVEQAGDDSSTMPQDDVDRRLAVLSHVFAIIDGDHDGKLNFEDVTRHLAKTA", "soluble on expression in E. coli": "not soluble"},
      {"sequence": "MSLYKTADGREIFIVDAHTHFWDGSPENQRNIHGKQFVDCFYAYHSALSPPEEKWEKSRFEKYSEDDIYRDLFVDGPDDMAIIQTTVLGDFYKTGFGCIERSTRMAARNPGRFIVNGAFDPRDGEKALEYIHYMKETHDITGVKLYTAEWHGDSRGWKLTDPAAYKCFELCDKLGIRNMHVHKGPTIIPLSKDSFSVGDVDDAATDFQGLNWIVEHCGLPRLDDFCWIAVQETNVYGGLAVALPFIHTRPRYFAEVIAELLFWLGPDKILFGSDYAIWTPKWLVDRFWNFQIPEDIAAERGVQLTDEIKEKILGLNAARLYGIDVDAKRRDFADHPVLIAAEGHHHHHH", "soluble on expression in E. coli": "soluble"},
      {"sequence": "MSELTSNRIRTTAAKLGLPHLAEALNQYVQRADEAKMGYLDFLDLVLAEELAVRDDRRFRNGLRLSKLPHHKTLEDYDFSFQPDLDPRKVKDLATLSFIEDKANVALLGPPGVGKTHIAVALAVAACRAGYSIYFTSLDDMVRHLKAAEDQGRLISKLTSYLRPAVLVVDEVGYQPLERAEANLVFQVISKRYEKGSIILTSNKTFGEWGQVFGDEVLATAILDRLLHHCEVVSINGNSYRLKNRLQAIERDTDVALEHHHHHH", "soluble on expression in E. coli": "soluble"},
      {"sequence": "MKREKKSFHLHMLSDATGETLISVGRAVASQYTMSQATEHIYPMIRNKTQLQRALDEIQQEPGIVLYTIIDKKIKILLRKRCEKIEIPCIDILHPVLNAFKSYLGIPTNLRVSAQHGLNADYFRRIEALDFTIEHDDGQSPNSLSDADVILVGISRTSKTPTSIYLANRGIKTANVPLIPGINLPDTLLGAKNALIIGLIASVERISHIRQNRNLGDDFSLESYTDRINISEELTYAKRICERFSWPVIDVTRRSIEETAAEIFELLSRFREGK", "soluble on expression in E. coli": "not soluble"},
      {"sequence": "MKKLIVDLDGTLTQANTSDYRNVLPRLDVIEQLREYHQLGFEIVISTARNMRTYEGNVGKINIHTLPIITEWLDKHQVPYDEILVGKPWCGHDGFYIDDRAVRPSEFASMNLEEIHQLFEKEKSCS", "soluble on expression in E. coli": "soluble"},
      {"sequence": "MSLDAGRHRVALLVPLTGANAAVGQSIANAATMALLDTNAANMRITTYDTASGAGSAASRAISDGNKLILGPLLGNDVVLVSNVARPAKVPMITYSNDSAVASRDVFVMGQAPGQSVARVLGFAKSKGIGSVAAIIPTGDYGQRAMNAVVDSGRALGVTVTAIETYDRGNTSVASAVRRVKEKGRFDALLIADGSRIALQAAPLAGKGVKLLGTELWSGEAAIAKSPATRGSWFAAVSDGRFGQFEKSYRTRFGATPSRLATLGYDSVLLTLNVARNWKPGTTFPTAKLYDPQGFIGLDGVFRFTASGMAERAMEVREVGAGTFTTVSPAEGHHHHHH", "soluble on expression in E. coli": "soluble"},
      {"sequence": "MGSDKIHHHHHHVSKPPTIVSVPMPCGSTIEIVAPGSFHIPRVLADGGLKNYEVHSTAAALALMERSEGAFYDIGANIGVFSLCVASALRRRCHAYEPFPDAATVLDELQVRYQLPIAVHRKGVGQTAGQAQFYLSDRSDMSNSLNPNFRKHRGVLDVEVTTLEIELKRDKPAVLKIDTETTEDQVITGGLNQIAHHRPSIIVELLNEAIAGKVRKLLLPLGYRCYAIGGGLRLQELSPIETSLEGDGRNWLFSPNPLDQEFADTFNKWRGVLFSI", "soluble on expression in E. coli": "not soluble"},
      {"sequence": "MSLKAIIFDMDGVLVDSMRFQADAWAKAFQDAGINIVREDIYELEGSNDKRLIKSIFKEARKEPEPEHFERLPEKKRDLLEFDRIKPFEGIPECLDELKRHFRLAMVSGSNRNTVGKIVDKFFSGYFDVVINGSDLERGKPDPDPYLKALEMLGLTKNECMVIENAPLGITAAKRAGLYCVAVASMLEPEKVQHADLVLEDHASLFDYLKSLIPGKPQTEGHHHHHH", "soluble on expression in E. coli": "soluble"},
      {"sequence": "MIIEERKNHELNLESIDRDLRMENVRQSAEKLGWEHFARSVRRNLLEKRQTLDARTRLDVLGSLVFMKEHLPIDNDATIARKVQQLSEGLGEHCVFSTQNSGFSIRNPDVTIDIGVAEDQISTCKIGYFGQPLTDAPGALALMKNGEFSKLRDSITAILSSLPKEITLSEKNACKEAFRALDQLLIRDAADSSFTAINTGKYGFYAPRNELRSGRIYYVAEPVLIRLAEKEGKTKADASYLDLLPYIEISFFKHDKPSKLPVFTQTGEWSTFNDANVCICVRFNQGFLLSQQTIRKLSHIVPKSPLVRNYVNFYRYMTGRVGVKSNLKLLTQFPDEGDIQQQYQVDSKMLTKEDDVVAMEMYLSDFRDLSKLIETLRSEWKHASLWESILAICESSKGEQKEVNAVDMQLVLRRTEFFLQFDTDYGSMTMQIFEKSPSNYVVKTTSQITGESPSLDFDKMLTEKLNSTWSIPATLTFAITDLKCRINSVLNCVISFDSSSSSDKQHQNYWSISNNNTQLMQSAAQKSAAKCTKKKVTVLEVGPAIEPTQLVYTRENDEEFQGSLLSSFGEVDDYYVKTSTIGRTRPQPRPKREPNQLTSMDMMSAELDKSRHTMEGSMRDAQTSSFLDAARVRMKQSIGAAHAVGLASHQPPASPVAAAAAAPGGPMRHNSYPSGFEPPPSVAPYDFPADPSKKQRKQRAKKQPGEEPPAGRGKGGKKGRGAGAVGAAAAGGRKSAGGAGENPFGMDPMRPPMLQRSSSEQHNPNPHQMSQYQMQQYQQNQQFRMHQMQQQQQQQFQMQSPKNPLVPAYTDEDSDEECDPPPPPKPQVSTSSRMSSVPSHPPPPPQQLGNPMVGYPGMPLQSPNHLPLTPSPLSAPPKPFSPEQQHHFGMKMRETSYWKELERLETKPDVEKLKQQLSSSSSSSQAEASDPPSTSTEAQDPPKPSSSSAPPPPKKKLGLEAAISKIRGQQEQALQKQLQQQESVESELATPHPGSSGAPPLAPHQVNRARNLNDIFDDEADDSSPTADIKPSLQALQKPTDTSSQSTSSEPPPKKEPADEQPEREKEKLILKIPKMLKPVVDDRREDRKERDRDRDRDRDRDEDREKVRDKEDKAQREKDKKEKERERRRQRDRDRTEQKKSDREKEPSKKRKLEKKDEKEKDRREPERKKGKSDGKEYSKASTTSLIPTLSLKNFRIPKKDTVEEEKKDVKEEAPGPSSSTESKKEPPSAAPITRKESTTAPVAPAVQQQQQRKESFTALPSLPEQQQHHREPLLKKKPPLQPPPPPQMTGPPIGIYPGPPAPGNLPGSSRPSGNRKQPLPPPPPMIRGPPPDQMYRDRSGGGGGSMRGGFPPASHYHGGTSGVNKQVASYAQGLPPGMGPPVVKPHGNNYQASQWVRPPTHRDSSHSYHGMPSLGPPQLQREPPAPPPPQMIPLPKDPPVLREHPREHRAHRGGADDDGPDSPEEGTLRIDDE", "soluble on expression in E. coli": "not soluble"},
      {"sequence": "MASWSHPQFEKGASTSLYKKAGLMDSQRSTLVHWFRKGLRLHDNPALSHIFTAANAAPGRYFVRPIFILDPGILDWMQVGANRWRFLQQTLEDLDNQLRKLNSRLFVVRGKPAEVFPRIFKSWRVEMLTFETDIEPYSVTRDAAVQKLAKAEGVRVETHCSHTIYNPELVIAKNLGKAPITYQKFLGIVEQLKVPKVLGVPEKLKNMPTPPKDEVEQKDSAAYDCPTMKQLVKRPEELGPNKFPGGETEALRRMEESLKDEIWVARFEKPNTAPNSLEPSTTVLSPYLKFGCLSARLFNQKLKEIIKRQPKHSQPPVSLIGQLMWREFYYTVAAAEPNFDRMLGNVYCMQIPWQEHPDHLEAWTHGRTGYPFIDAIMRQLRQEGWIHNLARHAVACFLTRGDLWISWEEGQRVFEQLLLDQDWALNAGNWMWLSASAFFHQYFRVYSPVAFGKKTDPQGHYIRKYVPELSKYPAGCIYEPWKASLVDQRAYGCVLGTDYPHRIVKHEVVHKENIKRMGAAYKVNREVRTGKEEESSFEEKSET", "soluble on expression in E. coli": "soluble"}
    ]}
  ]
}
